Experimental data reported in patent publication EP0999853B1.

Molecular target: recombinant preparation of soluble MAC-1 (UniProt P11215)
Experiment: MAC-1 capture ELISA over total F(ab')2 ELISA; 5 weeks of storage, all formulations F1-F5

- loss of specific activity at 40°C relative to -70°C: 10 to 15%
Substance: recombinant humanized anti-CD18 antibody (rhuMAb CD18)
